Experiments:
Assay in all cases: cell-based or functional assay
[1] = target: Frizzled 8 receptor (expressed in transfected cells) (human, UniProt Q9H461 28-694)
[2] = target: Frizzled 9 (expressed in transfected 293T cells)
[3] = target: T1, Frizzled 6 (expressed in transfected 293T cells)
T1 sequence (O60353 whole entry, species assumed, looked up): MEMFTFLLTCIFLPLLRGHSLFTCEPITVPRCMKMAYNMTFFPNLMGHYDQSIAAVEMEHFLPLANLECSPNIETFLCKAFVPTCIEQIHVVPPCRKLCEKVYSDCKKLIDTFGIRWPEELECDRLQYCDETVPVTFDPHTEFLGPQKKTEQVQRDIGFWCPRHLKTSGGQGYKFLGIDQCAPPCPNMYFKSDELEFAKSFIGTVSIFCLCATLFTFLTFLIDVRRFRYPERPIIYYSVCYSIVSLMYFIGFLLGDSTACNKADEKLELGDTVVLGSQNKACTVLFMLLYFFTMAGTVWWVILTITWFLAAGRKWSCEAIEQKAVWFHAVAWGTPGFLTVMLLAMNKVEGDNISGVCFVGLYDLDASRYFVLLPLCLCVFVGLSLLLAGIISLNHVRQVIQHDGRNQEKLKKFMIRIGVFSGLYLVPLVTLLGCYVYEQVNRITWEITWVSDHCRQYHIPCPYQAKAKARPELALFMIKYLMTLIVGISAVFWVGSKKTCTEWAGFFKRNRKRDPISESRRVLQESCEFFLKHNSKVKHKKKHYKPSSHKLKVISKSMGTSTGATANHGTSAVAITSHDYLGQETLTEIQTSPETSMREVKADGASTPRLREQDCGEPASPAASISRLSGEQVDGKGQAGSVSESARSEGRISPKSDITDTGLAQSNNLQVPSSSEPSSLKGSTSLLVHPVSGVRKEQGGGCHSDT

[4] = target: Frizzled 7 (expressed in transfected 293T cells)

Sequence of Frizzled 8 receptor (expressed in transfected cells) (Q9H461 28-694 limits assumed): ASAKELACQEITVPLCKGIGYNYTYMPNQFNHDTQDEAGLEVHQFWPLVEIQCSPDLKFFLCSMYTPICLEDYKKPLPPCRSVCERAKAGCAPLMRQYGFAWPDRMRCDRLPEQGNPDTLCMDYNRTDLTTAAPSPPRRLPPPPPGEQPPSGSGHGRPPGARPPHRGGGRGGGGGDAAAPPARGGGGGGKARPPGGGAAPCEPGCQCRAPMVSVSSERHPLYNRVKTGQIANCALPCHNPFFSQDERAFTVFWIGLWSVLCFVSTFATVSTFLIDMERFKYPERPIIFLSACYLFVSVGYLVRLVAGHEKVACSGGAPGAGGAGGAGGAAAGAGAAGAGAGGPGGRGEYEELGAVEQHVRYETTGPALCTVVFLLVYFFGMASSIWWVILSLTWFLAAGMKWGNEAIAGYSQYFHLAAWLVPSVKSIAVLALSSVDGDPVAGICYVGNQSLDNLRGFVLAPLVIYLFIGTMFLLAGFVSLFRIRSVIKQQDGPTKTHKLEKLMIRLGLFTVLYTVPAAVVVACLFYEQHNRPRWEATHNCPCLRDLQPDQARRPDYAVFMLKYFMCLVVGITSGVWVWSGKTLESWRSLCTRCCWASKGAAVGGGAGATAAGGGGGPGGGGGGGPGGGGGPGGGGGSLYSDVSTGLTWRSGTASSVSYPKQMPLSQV

B1: wild type Wnt2 (expressed from transfected Wnt2 cDNA) (ligand)
chain: SWWYMRATGGSSRVMCDNVPGLVSSQRQLCHRHPDVMRAISQGVAEWTAECQHQFRQHRWNCNTLDRDHSLFGRVLLRSSRESAFVYAISSAGVVFAITRACSQGEVKSCSCDPKKMGSAKDSKGIFDWGGCSDNIDYGIKFARAFVDAKERKGKDARALMNLHNNRAGRKAVKRFLKQECKCHGVSGSCTLRTCWLAMADFRKTGDYLWRKYNGAIQVVMNQDGTGFTVANERFKKPTKNDLVYFENSPDYCIRDREAGSLGTAGRVCNLTSRGMDSCEVMCCGRGYDTSHVTRMTKCGCKFHWCCAVRCQDCLEALDVHTCKAPKNADWTTAT
TCF activity (TOPflash reporter) in Human Embryonic Kidney 293 cells and A549 cells compared to vector control [1]: 5 fold
luciferase activity (TOPflash TCF reporter, 293T cells co-expressing Wnt2 and the Fzd receptor) compared to vector alone [1]: 25 fold
luciferase activity (TOPflash TCF reporter, 293T cells co-expressing Wnt2 and the Fzd receptor) over vector control alone [2]: 16 fold
luciferase activity (TOPflash TCF reporter, 293T cells co-expressing Wnt2 and the Fzd receptor) [3]: 10 fold
TCF-activity (TOPflash reporter, 293T cells) compared to vector control [4]: 4 fold
TCF-activity (TOPflash reporter, 293T cells), increase due to the presence of Wnt2 [4]: ~2 fold
